Laboratory results as given in US20140057807A1 (UNIVERSITY OF CHICAGO, published 2014).

B1: SEQ ID NO 165 (designed binder)
chain: PLSPPTNLHLEANPDTGVLTVSWERSTTPDITYYGIWTLTWLQYYSYRWGLEEAVHADQSSCTFDNLSPGLVYLVYVGTVRSPMARPISDTIIP
B2: SEQ ID NO 183 (designed binder)
chain: PLSPPTNLHLEANPDTGVLTVSWERSTTPDITKYIISTYVDYGGYLEEVVHADQSSCTFDNLSPGLGYSVTVSTVSAGWDSPISDTIIP
B3: SEQ ID NO 166 (designed binder)
chain: PLSPPTNLHLEANPDTGVLTVSWERSTTPDITWYWIGTWYSGYMVGLEEVVHADQSSCTFDNLSPGLTYWVLVGTVVRSPSRRPISDTIIP
B4: SEQ ID NO 173 (designed binder)
chain: PLSPPTNLHLEANPDTGVLTVSWERSTTPDITMYAITTYEYSRAWQYLEEVVHADQSSCTFDNLSPGLTYYVEVYTVRYTWSDPISDTIIP
B5: SEQ ID NO 187 (designed binder)
chain: PLSPPTNLHLEANPDTGVLTVSWERSTTSDITKYYIATWFGDYGYSLEEVVHADQSSCTFDNLSPGLQYGVSVATVKGGQAHYPISDTIIP
B6: SEQ ID NO 199 (designed binder)
chain: PLSPPTNLHLEANPDTGVLTVSWERSTTPDITAYVIYTYSESDGRVLEEVVHADQSSCTFDNLSPGLRYSVKVSTVYYSYAYPISDTIIP
B7: SEQ ID NO 197 (designed binder)
chain: PLSPPTNLHLEASPDTGVLTVSWERSTTPDITTYLILTYLGYSRVLEEVVHADQSSCTFDNLSPGLWYMVYVDTVGRVPYIGPISDTIIP
B8: SEQ ID NO 194 (designed binder)
chain: PLSPPTNLHLEANPDTGVLTVSWERSTTPDITTYVIDTGAAVNYVLEEVVHADQSSCTFDNLSPGLQYSVDVVVTVWYSWYMPISDTIIP
B9: SEQ ID NO 182 (designed binder)
chain: PLSPPANLRLEANPDTGVLTVSWERSTTPDITRYVIATGYGGSWYHLEEVVHADQSRCTFDNLSPGLAYYVDVYTVTPGEKHSPISDTIIP
B10: SEQ ID NO 161 (designed binder)
chain: PLSPPTNLHLEANPDTGVLTVSWERSTTRDITTYGIETEYDHSVGLEEVVHADQSSCTFDNLSPGLNYDVEVVTVGWGVYQRPISDTIIP
B11: SEQ ID NO 172 (designed binder)
chain: PLSPPTNLHLEANPDTGVLTVSWERSTTPDITYYSIDTWTFGQWGLEEVVHADQSSCTFDNLSPGLYYYVEVVTVYEWAYSYPISDTIIP
B12: SEQ ID NO 167 (designed binder)
chain: PLSPPTNLHLEANPDTGVLTVSWERSTTPDVTTYSIYTYGYWDSHYMSLEEVVHADQSRCTFDNLSPGLYYSVEVYTVYYGLYVVPISDTIIP
B13: SEQ ID NO 189 (designed binder)
chain: PLSPPTNLHLEANPDTGVLTVSWERSTTPDITYYSITTSFYYSELEEVVHADQSSCTFDNLSPGLKYMVSVSTVSYSVGSPISDTIIP
B14: SEQ ID NO 175 (designed binder)
chain: PLSPPTNLHLEANPDTGVLTVSWERSTTPDITWYWINTSLANVRMSLEEVVHADQSGCTFDNLSPGLYYDVQVRTVSAAEGYPISDTIIP
B15: SEQ ID NO 174 (designed binder)
chain: PLSPPTNLHLEANPDTGVLTVSWERSTTPDITDYNISTWLYTSVSVYTELEEVVHAGQSSCTFDNLSPGLAYVVYVWSTVWEHFYPSPISDTIIP
B16: SEQ ID NO 171 (designed binder)
chain: PLSPPTNLHLEANPDTGVLTVSWERSTTPDITYYTIATADYTYSYAHLEEVVHADQSSCTFDNLSPGLNYEVGVGTVSVYSYIGPISDTIIP
B17: SEQ ID NO 169 (designed binder)
chain: PLSPPTNLHLEANPDTGVLTVSWERSTTPDITDYYIITRSRWGYLEEVVHADQSSCTFDNLSPGLRYHVYVWTVGHYRDPISDTIIP
B18: SEQ ID NO 184 (designed binder)
chain: PLSPPTNLHLEANPDTGVLTVSWERSTTPDITSYRISTEWRWRYTGLEEVVHADQSSCTFDNLSPGLIYGVGVSTVWKHNSQAPISDTIIP
B19: SEQ ID NO 163 (designed binder)
chain: SLSPPTNLHLEANPDTGVLTVGWERSTTPGITSYSIDTAKDDVPYLEEVVHADQSSCTFDNLSPGLNYTVVVATVGWSVDGPISDTIIP
B20: SEQ ID NO 198 (designed binder)
chain: PLSPPTNLHLEANPDTGVLTVSWERSTTPDITVYYIYTYTYNADLILEEVVHADQSSCTFDNLSPGLIYSVYVGTVASDDGRPISDTIIP
B21: SEQ ID NO 188 (designed binder)
chain: PLSPPTNLHLEANPDTGVLTVSWERSTTPDITKYYILTSGYWGGGLEEVVHADQSSCTFDNLSPGLTYLVSVWTVTHYAGYPISDTIIP
B22: SEQ ID NO 191 (designed binder)
chain: PLSPPTNLHLEANPDTGVLTVSWERSTTPDITRYYIRTSYVRHGRLEEVVHADQSSCTFDNLSPGLYYNVSVSTVGYYYMLPISDTIIP
B23: SEQ ID NO 196 (designed binder)
chain: PLSPPTNLHLEANPDTGVLTVSWERSTTPDITYYYIHTYYWKHWQSLEEVVHADQSSCTFDNLSPGLKYGVWVSTVYRVVYYPISDTIIP
B24: SEQ ID NO 181 (designed binder)
chain: PLSPPTNLHLEANPDTGVLTVSWERSTTPDITYYYIGTYQGTTYEHLEEVVHADQSSCTFDNLSPGLIYLVYVSTVYWDSMSSPISDTIIP
B25: SEQ ID NO 168 (designed binder)
chain: PLSPPTNLHLEANPDTGVLTVSWERSTTPDITTYGIETQTVEWVYYLEEVVHADQSSCTFDNLSPGLYYNVTVGTVMLDAAYPISDTIIP
B26: SEQ ID NO 193 (designed binder)
chain: PLSPPTNLHLEANPDTGVLTVSWERSTTPDITMYGIVTIYTRYYSLEEVVHADQSSCTFDNLSPGLIYWVYVLTVYYSWYRPISDTIIP
B27: SEQ ID NO 176 (designed binder)
chain: PLSPPTNLHLEANPDTGVLTVSWERSTTPDITKYIIYTGYGASYDLEEVVHADQSSCTFDNLSPGLKYTVTVWTVSYASQVPISDTIIP
B28: SEQ ID NO 195 (designed binder)
chain: PLSPPTNPHLEANPDTGVLTVSWERSTTPDITTYWIGTYYSADERLEEVVHADQSSCTFDNLSPGLYYAVVVGTVGVWYRVAPISDTIIP
B29: SEQ ID NO 164 (designed binder)
chain: PLSPPTNLHLEANPDTGVLTVSWERSTTPDITYYEINTTGYYGFYPGGLEEVVHADQSSCTFDNLSPGLYYQVTVQTVVYSMWYHPISDTIIP
B30: SEQ ID NO 177 (designed binder)
chain: PLSPPTNLHLEANPDTGVLTVSWERSTTPDITMYSIYTYDYTRNYVLEEAVHADQSSCTFDNLSPGLYGYYVGVGTVTGAGWHPISDTIIP
B31: SEQ ID NO 179 (designed binder)
chain: PLSPPTNLHLEANPDTGVLTVSWERSTTPDITMYDIKTIYYKAYYYGLEEVVHADQSSCTFDNLSPGLYYFVGVVTVERPRYYPISDTIIP
B32: SEQ ID NO 170 (designed binder)
chain: PLSPPTNLHLEANPDTGVLTVSWERSTTPDITNYLIQTDYFAFIKGVLEEVVHADQSSCTFDNLSPGLYYYVGVDTVSVPSHGPISDTIIP
B33: SEQ ID NO 178 (designed binder)
chain: PLSPPTNLHLEVNPDTGVLTVSWERSTTPGITQYDIATLSYGGRSGGLEEVVHADQSSCTFDNLSPGLSYVVSVSTVTSNEYSAPISDTIIP
B34: SEQ ID NO 186 (designed binder)
chain: PLSPPTNLHLEANPDTGVLTVSWERSTTPDITGYSIATYLTYSNLVGLEEVVHADQSSCTFDNLSPGLSYKVSVYTVYGYSYGPISDTIIP
B35: SEQ ID NO 185 (designed binder)
chain: PLSPPTNLHLEANPDTGVLTVSWERSTTPDITMYYISTGGSSYKPDRLEEVVHADQSSCTFDNLSPGLDYMVYVRTVMYYNRSPISDTIIP
B36: SEQ ID NO 192 (designed binder)
chain: PLSPPTNLHLEANPDTGVLTVSRERSTTPDITTYSIYTHSGALYVLEEVVHADQSSCTFDNPSPGLNYNVSVSTVHSRWRYGPISDTIIP
B37: SEQ ID NO 180 (designed binder)
chain: PLSPPTNLHLEANPDTGVLTVSWERSTTPDITYYYIDTNGGYWSYLEEVVHADQSSCTFDNLSPGLGYPVGYVRTVYAGWLKGPISDTIIP

molecular target: T1, human serum albumin (human, UniProt P02768 25-609); assay: cradle library selection hit
T1 construct: also called HSA
T1 sequence (P02768 25-609 limits assumed): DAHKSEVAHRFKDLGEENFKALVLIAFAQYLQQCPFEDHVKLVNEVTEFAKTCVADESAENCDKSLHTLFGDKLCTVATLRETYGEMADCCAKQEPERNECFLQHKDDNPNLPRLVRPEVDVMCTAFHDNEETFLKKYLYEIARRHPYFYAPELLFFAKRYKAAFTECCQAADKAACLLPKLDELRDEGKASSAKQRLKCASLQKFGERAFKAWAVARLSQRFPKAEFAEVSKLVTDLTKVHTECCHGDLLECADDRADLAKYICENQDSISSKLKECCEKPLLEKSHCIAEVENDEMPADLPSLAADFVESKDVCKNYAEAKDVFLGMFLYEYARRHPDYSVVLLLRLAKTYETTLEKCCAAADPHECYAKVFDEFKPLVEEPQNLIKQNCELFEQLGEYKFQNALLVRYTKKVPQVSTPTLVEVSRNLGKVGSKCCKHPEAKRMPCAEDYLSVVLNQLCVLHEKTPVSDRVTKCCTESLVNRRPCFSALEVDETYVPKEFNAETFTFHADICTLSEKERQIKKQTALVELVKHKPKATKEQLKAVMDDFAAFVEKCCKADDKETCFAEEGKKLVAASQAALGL

Binding result, binds:
B1
B2
B3
B4
B5
B6
B7
B8
B9
B10
B11
B12
B13
B14
B15
B16
B17
B18
B19
B20
B21
B22
B23
B24
B25
B26
B27
B28
B29
B30
B31
B32
B33
B34
B35
B36
B37
